Measured values published in article PMC9157467, “A cryptic phosphate-binding pocket on the SPFH domain of human stomatin that regulates a novel fibril-like self-assembly” (Current Research in Structural Biology, 2022).

Target: the molecule itself
Assay: light scattering at 320 nm; lyophilized protein suspended to 400 uM in 50 mM sodium phosphate pH 6.0, 100 mM NaCl or 50 mM bis-Tris/HCl pH 6.0, 100 mM NaCl (mutants also at high phosphate); dissolution followed over time

B1: hSTOM(SPFH)-[R125A] (domain or fragment, human, UniProt P27105 94-202, looked up)
chain: VDMRTISFDIPPQEILTKDSVTISVDGVVYYAVQNATLAVANITNADSATRLLAQTTLRNVLGTKNLSQILSDREEIAHNMQSTLDDATDAWGIKVERVEIKDVKLPVQ
notes: human stomatin (STOM), SPFH domain, residues 94-202, with R125A; Same construct as m1 with one alanine substitution (QuikChange); source: E. coli BL21 (DE3), purified (DEAE Sepharose, Glutathione Sepharose 4 Fast Flow, thrombin cleavage, Superdex 75)
binding result: binds

B2: hSTOM(SPFH)-[K188A] (domain or fragment, human, UniProt P27105 94-202, looked up)
chain: VDMRTISFDIPPQEILTKDSVTISVDGVVYYRVQNATLAVANITNADSATRLLAQTTLRNVLGTKNLSQILSDREEIAHNMQSTLDDATDAWGIAVERVEIKDVKLPVQ
notes: human stomatin (STOM), SPFH domain, residues 94-202, with K188A; Same construct as m1 with one alanine substitution (QuikChange); source: E. coli BL21 (DE3), purified (DEAE Sepharose, Glutathione Sepharose 4 Fast Flow, thrombin cleavage, Superdex 75)
binding result: binds
